Assay results reported in patent publication US20170015748A1 (NATIONAL RESEARCH COUNCIL OF CANADA, published 2017).

Target: T1, recombinant extracellular portion of human IGF1R (IGF1R^933-His fragment) (human, UniProt P08069 31-933)
T1 construct: It holds a furin site (RKRR) between the alpha and beta subunits, so the protein may be cleaved into two disulphide-linked chains; also called h-IGF1R; recombinant human IGF1R; not shown: His tag from vector pCDN4/myc-His
Assay: SPR (BIACORE 3000), human IGF1R immobilized on CM5, VHH injected, 1:1 model, 25 C
Procedure: Approximately 3000 Resonance Units (RU) of recombinant human IGF1R (R&D Systems) were immobilized on a Sensor chip CM5. Immobilization was carried out at a concentration of 10 μg/ml in 10 mM acetate at pH4.0 using the amine coupling kit supplied by the manufacturer. The remaining binding sites were blocked with 1M ethanolamine pH 8.5. An ethanolamine blocked surface was used as a reference surface. For the binding studies, analyses were carried out at 25° C. in 10 mM HEPES, pH7.4 containing 150 mM NaCl, 3 mM EDTA and 0.005% surfactant P20 (Polyoxyethylenesorbitan; GE Healthcare). […] Surfaces were regenerated with 10 mM glycine pH 2.0 with a contact time of 24 seconds. Data were analyzed with BIAevaluation 4.1 software (GE Healthcare).

T1 sequence (P08069 31-933): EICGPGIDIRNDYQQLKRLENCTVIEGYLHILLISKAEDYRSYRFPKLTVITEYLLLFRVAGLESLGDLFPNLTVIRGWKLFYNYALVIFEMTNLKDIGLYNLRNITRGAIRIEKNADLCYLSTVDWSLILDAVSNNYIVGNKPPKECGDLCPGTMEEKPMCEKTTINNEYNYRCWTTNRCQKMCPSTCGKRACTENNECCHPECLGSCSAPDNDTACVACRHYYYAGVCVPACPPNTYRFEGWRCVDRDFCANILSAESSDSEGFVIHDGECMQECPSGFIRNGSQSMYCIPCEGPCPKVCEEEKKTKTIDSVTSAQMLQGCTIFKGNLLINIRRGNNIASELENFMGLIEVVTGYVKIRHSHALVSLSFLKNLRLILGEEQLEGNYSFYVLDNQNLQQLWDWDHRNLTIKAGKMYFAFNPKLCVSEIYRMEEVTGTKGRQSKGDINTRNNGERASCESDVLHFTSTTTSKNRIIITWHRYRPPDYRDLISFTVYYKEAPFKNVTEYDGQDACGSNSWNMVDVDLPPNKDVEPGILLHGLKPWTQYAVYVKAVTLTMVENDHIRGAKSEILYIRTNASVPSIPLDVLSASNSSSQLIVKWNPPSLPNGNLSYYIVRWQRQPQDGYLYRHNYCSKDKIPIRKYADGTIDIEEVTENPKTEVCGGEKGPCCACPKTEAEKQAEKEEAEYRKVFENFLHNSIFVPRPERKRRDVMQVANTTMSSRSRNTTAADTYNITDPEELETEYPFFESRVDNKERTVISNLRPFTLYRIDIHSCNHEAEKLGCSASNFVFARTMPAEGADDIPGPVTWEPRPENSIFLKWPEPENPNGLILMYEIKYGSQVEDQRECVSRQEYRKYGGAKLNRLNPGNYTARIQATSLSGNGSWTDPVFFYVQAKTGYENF

Binder | Kd | koff | kon
IGF1R-5_H3 (VHH, Humanized variant of IGF1R-5, expressed from pSJF2H in E. coli) VHH: QVQLVESGGGLVQPGGSLRLSCAASGRTIDNYAMAWSRQAPGKGLEFVATIDWGDGGTRYANSVKGRFTISRDNSKNTMYLQMNSLRAEDTAVYYCAMARQSRVNLDVARYDYWGQGTLVTVSS | 0.8 nM | 0.00041 s⁻¹ | 520000 M⁻¹ s⁻¹
IGF1R-5_H1 (VHH, Humanized variant of IGF1R-5, expressed from pSJF2H in E. coli) VHH: EVQLVESGGGLVQPGGSLRLSCAASGRTIDNYAMAWVRQAPGKGLEWVSTIDWGDGGTRYANSVKGRFTISRDNSKNTLYLQMNSLRAEDTAVYYCAMARQSRVNLDVARYDYWGQGTLVTVSS | 11 nM | 0.0043 s⁻¹ | 390000 M⁻¹ s⁻¹
IGF1R-5_H2 (VHH, Humanized variant of IGF1R-5, expressed from pSJF2H in E. coli; also called IGF1R H2) VHH: QVQLVESGGGLVQPGGSLRLSCAASGRTIDNYAMAWVRQAPGKGLEWVATIDWGDGGTRYANSVKGRFTISRDNSKNTMYLQMNSLRAEDTAVYYCAMARQSRVNLDVARYDYWGQGTLVTVSS | 7.5 nM | 0.0029 s⁻¹ | 380000 M⁻¹ s⁻¹

More lines, now with the values ahead:

Kd | koff | kon | Binder
1.6 nM | 0.0008 s⁻¹ | 500000 M⁻¹ s⁻¹ | IGF1R-5_H5 (VHH, Humanized variant of IGF1R-5, expressed from pSJF2H in E. coli) VHH: QVQLVESGGGLVQPGGSLRLSCAASGRTIDNYAMAWSRQAPGKDREFVATIDWGDGGTRYANSVKGRFTISRDNSKGTMYLQMNSLRAEDTAVYSCAMARQSRVNLDVARYDYWGQGTLVTVSS
1.7 nM | 0.00072 s⁻¹ | 430000 M⁻¹ s⁻¹ | IGF1R-5_H6 (VHH, Humanized variant of IGF1R-5, expressed from pSJF2H in E. coli) VHH: EVQLVESGGGLVQPGGSLRLSCAASGRTIDNYAMAWSRQAPGKDREFVSTIDWGDGGTRYANSVKGRFTISRDNSKNTLYLQMNSLRAEDTAVYYCAMARQSRVNLDVARYDYWGQGTLVTVSS
0.6 nM | 0.00034 s⁻¹ | 530000 M⁻¹ s⁻¹ | IGF1R-5 VHH (VHH, Llama VHH expressed in E. coli TG1 from vector pSJF2H and purified by IMAC; Monomeric by SEC; also called anti-IGF1R VHH IGF1R-5; wild-type IGF1R-5) VHH: QVKLEESGGGLVQAGGSLRLSCAASGRTIDNYAMAWSRQAPGKDREFVATIDWGDGGARYANSVKGRFTISRDNAKGTMYLQMNNLEPEDTAVYSCAMARQSRVNLDVARYDYWGQGTQVTVSS
